Data taken from publication PMC8213806 (Nature Communications, 2021).

B1: Repeat1-Fc (CSPG4 Repeat1, residues 410–551, fused to the N-terminus of human IgG1 Fc) (Fc fusion)
chain: ELPEPCVPEPGLPPVFANFTQLLTISPLVVAEGGTAWLEWRHVQPTLDLMEAELRKSQVLFSVTRGARHGELELDIPGAQARKMFTLLDVVNRKARFIHDGSEDTSDQLVLEVSVTARVPMPSCLRRGQTYLLPIQVNPVND
notes: also called CSPG4 decoy; source: FreeStyle HEK 293 cells, secreted, purified (Ni-NTA); not shown: Fc (human IgG1), C-terminal, kept
B2: His-tagged CSPG4 Repeat1 (residues 410–551), biotinylated (domain or fragment)
chain: B1 chain
modifications: biotinylated using EZ-Link NHS-PEG4-Biotin at pH 6.5
notes: also called His-tagged Repeat1; source: FreeStyle HEK 293 cells, secreted, purified (Ni-NTA); not shown: 8xHis, N-terminal, kept
B3: CSPG4^mini (human CSPG4 residues 30–764: two laminin G motifs and first two CSPG repeats) (domain or fragment)
chain: ASFFGENHLEVPVATALTDIDLQLQFSTSQPEALLLLAAGPADHLLLQLYSGRLQVRLVLGQEELRLQTPAETLLSDSIPHTVVLTVVEGWATLSVDGFLNASSAVPGAPLEVPYGLFVGGTGTLGLPYLRGTSRPLRGCLHAATLNGRSLLRPLTPDVHEGCAEEFSASDDVALGFSGPHSLAAFPAWGTQDEGTLEFTLTTQSRQAPLAFQAGGRRGDFIYVDIFEGHLRAVVEKGQGTVLLHNSVPVADGQPHEVSVHINAHRLEISVDQYPTHTSNRGVLSYLEPRGSLLLGGLDAEASRHLQEHRLGLTPEATNASLLGCMEDLSVNGQRRGLREALLTRNMAAGCRLEEEEYEDDAYGHYEAFSTLAPEAWPAMELPEPCVPEPGLPPVFANFTQLLTISPLVVAEGGTAWLEWRHVQPTLDLMEAELRKSQVLFSVTRGARHGELELDIPGAQARKMFTLLDVVNRKARFIHDGSEDTSDQLVLEVSVTARVPMPSCLRRGQTYLLPIQVNPVNDPPHIIFPHGSLMVILEHTQKPLGPEVFQAYDPDSACEGLTFQVLGTSSGLPVERRDQPGEPATEFSCRELEAGSLVYVHRGGPAQDLTFRVSDGLQASPPATLKVVAIRPAIQIHRSTGLRLAQGSAMPILPANLSVETNAVGQDVSVLFRVTGALQFGELQKQGAGGVEGAEWWATQAFHQRDVEQGRVRYLSTDPQHHAYDTVENLALEVQ
notes: source: FreeStyle HEK 293 cells, secreted, purified (Ni-NTA, Superdex-200)

Biological target: T1, TcdB1 holotoxin (VPI10463 strain), recombinant full-length, from Bacillus megaterium (Clostridioides difficile (VPI10463 …, UniProt P18177 1-2366))
T1 construct: source: Bacillus megaterium, purified as described previously
Experiment: BLI
Settings: both partners purified

Row | Binder | Kd [nM] | koff [s⁻¹] | kon [M⁻¹ s⁻¹] | binding result
1 | B1 | ~15.2 | ~0.000108 | ~7060 | –
2 | B2 | – | – | – | binds
3 | B3 | – | – | – | binds
